The values below come from paper PMC13598245.

The target of assay [1] is GST-tagged 14-3-3η (coexpressed with MAST1^DK) (UniProt Q04917). Kind of assay: cross-linking + other: mass photometry; complex stabilised by glutaraldehyde cross-linking, then mass photometry (25 to 50 nM, 50 mM HEPES pH 7.4, 150 mM NaCl, 1 mM TCEP).
Assay [2] has the same target. Kind of assay: SEC; complex coexpressed in Sf9, affinity-purified by the GST tag of 14-3-3η, then analytical SEC (Superdex 200 Increase 3.2/300, 50 mM HEPES pH 7.4, 150 mM NaCl, 1 mM TCEP, 4 °C); Coomassie SDS-PAGE of fractions with gel densitometry. (Size exclusion chromatography separates by hydrodynamic size, large species first.)
The target of a further assay is 14-3-3η (endogenous) (UniProt Q04917). Kind of assay: GFP-Trap affinity purification, mass spectrometry. The conditions noted are these: sites S90.
Assay [3] concerns the target 14-3-3η (purified, recombinant) (UniProt Q04917). Kind of assay: SEC; complex formed in vitro: equimolar MAST1^D p-S90 and 14-3-3η, 30 min at room temperature, then analytical SEC (Superdex 200 Increase 3.2/300, 50 mM HEPES pH 7.4, 150 mM NaCl, 1 mM TCEP, 4 °C; 50 μL of 30 μM); Coomassie SDS-PAGE of fractions with gel densitometry.
Assay [4] has the same target. Kind of assay: cross-linking + other: mass photometry; complex stabilised by glutaraldehyde cross-linking, then mass photometry (25 to 50 nM, 50 mM HEPES pH 7.4, 150 mM NaCl, 1 mM TCEP).
Assay [5] addresses 14-3-3η (purified recombinant) (UniProt P68510). Kind of assay: fluorescence anisotropy, FITC peptide. The note with it: reference: unphosphorylated peptide …. On the technique in general: Fluorescence polarisation rises when a labelled molecule tumbles more slowly, as on binding a larger partner.
The target in assay [6] is MAST1^DK ΔS90 ΔS161 (Mus musculus). Kind of assay: FP.

By Kd is commonly meant the equilibrium constant for the complex coming apart. A lower Kd goes with a tighter complex.

Sequence of 14-3-3η (purified, recombinant) (Q04917 whole entry): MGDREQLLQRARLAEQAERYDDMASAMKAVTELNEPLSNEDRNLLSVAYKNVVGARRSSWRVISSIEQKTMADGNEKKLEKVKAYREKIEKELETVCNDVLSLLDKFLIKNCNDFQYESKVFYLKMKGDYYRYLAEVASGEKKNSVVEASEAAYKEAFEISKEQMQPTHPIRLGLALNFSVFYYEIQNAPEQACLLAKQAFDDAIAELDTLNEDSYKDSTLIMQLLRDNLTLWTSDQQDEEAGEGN
Sequence of GST-tagged 14-3-3η (coexpressed with MAST1^DK) (Q04917 whole entry): as above
Sequence of MAST1^DK ΔS90 ΔS161 (Mus musculus) (Q9R1L5 whole entry S90del/S161del): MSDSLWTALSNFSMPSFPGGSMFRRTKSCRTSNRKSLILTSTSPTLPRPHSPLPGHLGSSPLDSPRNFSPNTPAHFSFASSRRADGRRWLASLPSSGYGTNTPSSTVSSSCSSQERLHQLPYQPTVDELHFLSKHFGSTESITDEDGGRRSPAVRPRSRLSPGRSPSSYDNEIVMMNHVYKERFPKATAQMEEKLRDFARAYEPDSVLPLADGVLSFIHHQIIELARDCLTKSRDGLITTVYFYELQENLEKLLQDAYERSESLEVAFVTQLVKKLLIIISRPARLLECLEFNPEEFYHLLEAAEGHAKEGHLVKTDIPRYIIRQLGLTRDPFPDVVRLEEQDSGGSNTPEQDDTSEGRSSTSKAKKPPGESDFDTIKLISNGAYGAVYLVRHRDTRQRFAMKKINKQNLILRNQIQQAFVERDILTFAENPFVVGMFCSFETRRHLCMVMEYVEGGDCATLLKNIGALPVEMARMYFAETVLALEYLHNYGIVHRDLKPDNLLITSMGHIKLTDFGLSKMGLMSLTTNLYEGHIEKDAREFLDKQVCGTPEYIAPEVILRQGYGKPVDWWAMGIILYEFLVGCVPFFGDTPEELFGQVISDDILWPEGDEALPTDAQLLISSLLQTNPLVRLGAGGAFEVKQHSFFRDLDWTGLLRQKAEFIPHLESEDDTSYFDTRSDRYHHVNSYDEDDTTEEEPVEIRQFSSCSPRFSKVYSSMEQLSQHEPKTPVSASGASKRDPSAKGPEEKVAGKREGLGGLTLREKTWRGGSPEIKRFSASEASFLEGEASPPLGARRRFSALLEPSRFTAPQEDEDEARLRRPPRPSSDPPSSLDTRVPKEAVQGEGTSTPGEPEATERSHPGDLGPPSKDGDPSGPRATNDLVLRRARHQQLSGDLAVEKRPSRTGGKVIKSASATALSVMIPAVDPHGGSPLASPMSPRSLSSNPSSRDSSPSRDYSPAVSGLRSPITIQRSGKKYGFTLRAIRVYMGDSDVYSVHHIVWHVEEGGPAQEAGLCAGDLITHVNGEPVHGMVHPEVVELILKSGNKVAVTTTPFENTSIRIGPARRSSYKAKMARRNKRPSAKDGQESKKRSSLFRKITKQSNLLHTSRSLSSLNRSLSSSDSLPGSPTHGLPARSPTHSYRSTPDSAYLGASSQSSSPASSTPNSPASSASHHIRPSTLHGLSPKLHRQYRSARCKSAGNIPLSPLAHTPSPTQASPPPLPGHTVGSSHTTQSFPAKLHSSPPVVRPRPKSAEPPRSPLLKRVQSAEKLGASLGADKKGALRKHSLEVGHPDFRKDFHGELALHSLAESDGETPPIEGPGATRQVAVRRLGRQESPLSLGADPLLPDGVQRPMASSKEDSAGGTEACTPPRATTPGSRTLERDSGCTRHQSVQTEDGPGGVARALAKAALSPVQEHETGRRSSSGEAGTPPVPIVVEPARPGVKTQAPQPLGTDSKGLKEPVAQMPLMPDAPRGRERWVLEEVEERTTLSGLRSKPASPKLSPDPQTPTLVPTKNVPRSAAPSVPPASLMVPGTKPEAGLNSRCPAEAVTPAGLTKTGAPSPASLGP

As to “MAST1^DK (copurified with 14-3-3η) (from UniProt Q9R1L5 1-1570) (domain or fragment)”, the stoichiometry N (MAST1:14-3-3η) in assay [1] and in assay [2] was 0.5 in each case.
As for “MAST1 MAST1DKP (from UniProt Q9R1L5) S90A S161A”, the “binding against the reference” value with 14-3-3η (endogenous) (reference: S161A single mutant (S90 intact)) is reported as “weaker”.
For “MAST1 MAST1DKP (from UniProt Q9R1L5) S90A”, the “binding against the reference” value in the assay with 14-3-3η (endogenous) (reference: wild type) is recorded as “weaker”.
With “MAST1^D p-S90 (from UniProt Q9R1L5 1-1570) (domain or fragment)”, the stoichiometry N (MAST1:14-3-3η) in assay [3] and in assay [4] was 0.5 throughout.
On to “MAST1 85-97 (from UniProt Q9R1L5) p-S90 peptide”, for which the “binding against the reference” value in assay [5] (sites S90) was “gained”.
Take “MAST1 156-168 (from UniProt Q9R1L5) p-S161 peptide”: the “binding against the reference” value in assay [5] (sites S161) was “gained”.
Regarding MAST1^153-166 WT, the Kd in assay [6] worked out at 1170 µM. This lies in the millimolar range.
